Here are results for four molecules from patent US20220047684A1, “ENZYMES AND METHODS FOR PREVENTING AND TREATING […] IN ANIMALS” (Ecto Development Corporation, priority 2020, published 2022).

Assay [1] can be described thus: pNPA method esterase (carboxylesterase) activity assay of spore productions. The format is biochemical. To be noted: 30° C. for 30 minutes, absorbance at 400. As to the method: Each of the identified enzymes were evaluated for esterase activity assay using pNBA method described below. Determination of carboxylesterase activity of cargo enzyme in Bacillus thuringiensis spore productions or of free enzyme productions. Three active carboxylesterases cloned into pBCm (Bt EO) and pET28a (E. coli BL21) systems: pnbA (B. subtilis), PytH2 (Sphingobium wenxiniae strain), and MsE1 (Methylobacterium sp). p-Nitrophenyl acetate was the substrate in assays for esterase activity. The hydrolysis of p-nitrophenyl acetate releases p-nitrophenol and acetate, and while p-nitrophenyl acetate is colorless, p-nitrophenol is yellow.
6 mg p-Nitrophenyl acetate (pNPA, CAS #830-03-5, MW: 181.1 g/mol) was weighed and dissolved in 1 mL methanol (CAS #67-56-1, MW: 32.04 g/mol). Stored at −20° C. and kept on ice when preparing reactions.
8.0 g sodium chloride (NaCl, CAS #7647-14-5, MW: 58.44 g/mol), 1.44 g sodium phosphate dibasic was dissolved (Na2HPO4, CAS #7558-79-4, MW: 141.96 g/mol), and 0.24 g potassium phosphate monobasic (KH2PO4, CAS #7778-77-0, 136.09 g/mol) in 800 mL DI H20, then adjust pH to 7.4 using hydrochloric acid (HCl, CAS #7647-01-0, MW: 36.46 g/mol). Make 100 mL aliquots and autoclave.
Esterase from rabbit liver (CAS #9016-18-6, Sigma E0887-powder). Store at −20° C. To prepare a stock dissolve 1 mg in 1 mL PBS, kept on ice when using.
Up to 1 mL spore production was pelleted up for 5 min at max speed. Supernatant was discarded without disturbing spore pellet and suspend pellet in ice-cold PBS. Spores kept suspended on ice until use.
The assay was run at 30° C. for 30 minutes. The assay was shaken continuously. Activity was read on (A) 400 BioTek Synergy/HTX microplate reader was used. The results of pNPA hydrolysis are shown in Table 3 depicting carboxylesterase enzyme activity for each of the five strains using pNPA hydrolysis.

Assay [2] in a line: Biological permethrin assay for esterase activity (activity units of esterases). The format is biochemical. To be noted: esterases used in reaction mix for scud assay. How it is done:
A biological permethrin assay was performed for control, and three esterases pnbA, pytH2 and MsE1. The sensitivity of scuds (Hyalella Azteca) to permethrin was tested with three esterases pnbA, pytH2 and MsE1.
For control and each of the three esterases pnbA, pytH2 and MsE1, ten scuds were exposed to permethrin and one of pnbA, pytH2 or MsE1.
• 100 μL 50% MeOH in PBS • 0.2 μg/μL
• 37 degree C. • 18 hr • Shanking 1000 rpm Transferred 20 μL rxn mix [4 μg] to 100 mL [containing 10 scuds] At time, 24 h and 48 h the ten scuds were scored: A=Alive and Moving actively BA=Barely Alive—Difficulty swimming away; only legs are moving D=Dead—Not moving at all The results of which are shown in FIGS. 8 and 9.

B1: E4: pyrethroid-hydrolyzing carboxylesterase MsE1 from Methylobacterium sp., amino acid SEQ. ID No. 4 (protein)
chain: MTQDTTGFIFIREEPGPDTTRPLMLLHGTGGDENDLLPLGRMVAPEAALLAPRGGVSENGMPRFFRRLAEGVFDEADLRRRTGDLAAFVAASRARYGLGAPLALGFSNGANIAASLLMLRPETLTGAVLIRPMVPFAEPPAADLAGRPVLILSGAMDPIVPVENARRLAQQLSASGARVEHRILPAGHGLSQADVSQALAWLRSLPGPEAA
modifications: Methylobacterium
For B1, the pNPA hydrolysis in assay [1] came to 30.6 ± 0.0 nmol pNPA/min/1E+8 spores. Also, in assay [2], the Activity units was 39.5.

B2: E1: pyrethroid-hydrolyzing carboxylesterase pytZ from Ochrobactrum sp., amino acid SEQ. ID No. 1 (protein)
chain: MTTQTYEHRLKAGAKGAPLFIVFHGTGGDENQFFGLAEQLLPDATIMSPRGDVSEYGAARFFRRTGEGVYDMEDLARATDKMAGFIAALAAEYKTSEVIGLGYSNGANIMANLLIEKGRVEDKAALLHPLVPFRPKDNPALEGAKILMTAGRMDPICPPDLTEALAQYFERQKADVELVWHPGGHELRQTELAAVQSLLAY
modifications: Ochrobactrum sp
For B2, in assay [1], the pNPA hydrolysis result was “BDL”.

B3: E2: pyrethroid-hydrolyzing carboxylesterase pnbA from B. subtilis, amino acid SEQ. ID No. 2 (protein, listed as Bacillus subtilis)
chain: MTHQIVTTQYGKVKGTTENGVHKWKGIPYAKPPVGQWRFKAPEPPEVWEDVLDATAYGSICPQPSDLLSLSYTELPRQSEDCLYVNVFAPDTPSKNLPVMVWIHGGAFYLGAGSEPLYDGSKLAAQGEVIVVTLNYRLGPFGFLHLSSFNEAYSDNLGLLDQAAALKWVRENISAFGGDPDNVTVFGESAGGMSIAALLAMPAAKGLFQICAIMESGASRTMTICEQAASTSAAFLQVLGINEGQLDKLHTVSAEDLLKAADQLRIAEKENFQLFFQPALDPKTLPEEPEKAIAEGAASGIPLLIGTTRDEGYLFFTPDSDVHSQETLDAALEYLLGKPLAEKVADLYPRSLESQIHMMTDLLEWRPAVAYASAQSHYAPVWMYREDWHPKKPPYNKAFHALELPFVFGNLDGLERMAKAEITDEVKQLSHTIQSAWITFAKTGNPSTEAVNWPAYHEETRETLILDSEITIENDPESEICRQKLEPSKGE
Turning to B3, the pNPA hydrolysis in assay [1] is recorded as 19.7 ± 1.4 nmol pNPA/min/1E+8 spores. In assay [2], this molecule came in with an Activity units of 31.4.

B4: E5: esterase EstP from Klebsiella sp., amino acid SEQ. ID No. 5 (protein)
chain: MEICTKGSRKHLTSRASEPSYNVPENQYVLYVVSSTLSIVICQLVKVAESKKSRFSGAIEKLNERLDSLKDYRIINRDLVVKDLERLKKRFDTEVINAELSEQLAKINVNLSRSYSEKGYLRLEKATGSENEWWAKKPSQNDDWQQFEPDGYTIFSSRDHYASLEKSYSDYEIEAKIPLPLRRGICAVVLYPEYISRICVLPESRSIQREQENFTKLRDKGIALSKKDWQAKLTIDELAEQEKERATINKRLGYFATEHEKVGIVHKALEPKLICPFQQIEKEWRQCKVKSKSTFPNSMTFVQNPAYQAVHSGFKKLKEQIGLADEDILLSLEKIEAIGLVNMPLLYERWCLLQIIKVLTQAFRYQPEDNWKRKLIANIQGNEEQISIQFFNPSVSRAITLQYEPFLANGKRPDFVLDVEAITKSGNQISKRLVVDAKYYSAAYLKQRGGIGGVIHELYNGKDYSECQENSVFVLHPVLDAVEKVVSPQEWAKDSYLGELSMFDWEPAHHQRQATNYGAVCANPMKSQRYLDEIQRMLGMFLQYGIEDNTSFRGASDDTHAVNFCVSCGSEKVVDVTKSMSSNNQKRWYRCNECTHFTVYTHCGTCNTRLIKNGEYWTYLSLMPMSSINIKCPNCESPV
modifications: Klebsiella
As for B4, the pNPA hydrolysis result in assay [1] was “BDL”.
